Data published in paper PMC10341545, “Structural and Biochemical Investigation of Selected Pathogenic Mutants of the Human Dihydrolipoamide Dehydrogenase” (International Journal of Molecular Sciences, 2023).

How the values were obtained:
[1] = biological target: the molecule itself; assay: crystal structure; sitting drop; 0.2 M MgCl2, PEG 3350, 0.1 M Bis-Tris pH 6.7; space group C 1 2 1; two monomers (the homodimer) in the asymmetric unit
[2] = biological target: the molecule itself; assay: SEC; calibrated size-exclusion chromatography (cSEC); HiPrep 16/60 Sephacryl S-200 HR, 4 °C, 150 mM ammonium acetate, pH 6.80, 0.5 mL/min; 40–780 μg protein loaded; dimer to monomers

Protein | binding result [1] | binding result [2]
I318T-hLADH (enzyme, human, UniProt P09622 36-509, looked up, Dihydrolipoamide dehydrogenase, human, pathogenic variant I318T; Clinically reported disease-causing variant; mutation verified by MS) ADQPIDADVTVIGSGPGGYVAAIKAAQLGFKTVCIEKNETLGGTCLNVGCIPSKALLNNSHYYHMAHGKDFASRGIEMSEVRLNLDKMMEQKSTAVKALTGGIAHLFKQNKVVHVNGYGKITGKNQVTATKADGGTQVIDTKNILIATGSEVTPFPGITIDEDTIVSSTGALSLKKVPEKMVVIGAGVIGVELGSVWQRLGADVTAVEFLGHVGGVGIDMEISKNFQRILQKQGFKFKLNTKVTGATKKSDGKIDVSIEAASGGKAEVITCDVLLVCIGRRPFTKNLGLEELGIELDPRGRIPVNTRFQTKIPNIYATGDVVAGPMLAHKAEDEGIICVEGMAGGAVHIDYNCVPSVIYTHPEVAWVGKSEEQLKEEGIEYKVGKFPFAANSRAKTNADTDGMVKILGQKSTDRVLGAHILGPGAGEMVNEAALALEYGASCEDIARVCHAHPTLSEAFREANLAASFGKSINF | binds | –
I12T-hLADH (enzyme, human, UniProt P09622 36-509, looked up, Dihydrolipoamide dehydrogenase, human, pathogenic variant I12T; Also expressed with an N-terminal Twin-Strep-tag to increase the yield; source: very low-expressing, eluted with contaminating proteins) ADQPIDADVTVTGSGPGGYVAAIKAAQLGFKTVCIEKNETLGGTCLNVGCIPSKALLNNSHYYHMAHGKDFASRGIEMSEVRLNLDKMMEQKSTAVKALTGGIAHLFKQNKVVHVNGYGKITGKNQVTATKADGGTQVIDTKNILIATGSEVTPFPGITIDEDTIVSSTGALSLKKVPEKMVVIGAGVIGVELGSVWQRLGADVTAVEFLGHVGGVGIDMEISKNFQRILQKQGFKFKLNTKVTGATKKSDGKIDVSIEAASGGKAEVITCDVLLVCIGRRPFTKNLGLEELGIELDPRGRIPVNTRFQTKIPNIYAIGDVVAGPMLAHKAEDEGIICVEGMAGGAVHIDYNCVPSVIYTHPEVAWVGKSEEQLKEEGIEYKVGKFPFAANSRAKTNADTDGMVKILGQKSTDRVLGAHILGPGAGEMVNEAALALEYGASCEDIARVCHAHPTLSEAFREANLAASFGKSINF | – | binds
G194C-hLADH (enzyme, human, UniProt P09622 36-509, looked up, Dihydrolipoamide dehydrogenase, human, pathogenic variant G194C; Clinically reported disease-causing variant) ADQPIDADVTVIGSGPGGYVAAIKAAQLGFKTVCIEKNETLGGTCLNVGCIPSKALLNNSHYYHMAHGKDFASRGIEMSEVRLNLDKMMEQKSTAVKALTGGIAHLFKQNKVVHVNGYGKITGKNQVTATKADGGTQVIDTKNILIATGSEVTPFPGITIDEDTIVSSTGALSLKKVPEKMVVIGAGVIGVELCSVWQRLGADVTAVEFLGHVGGVGIDMEISKNFQRILQKQGFKFKLNTKVTGATKKSDGKIDVSIEAASGGKAEVITCDVLLVCIGRRPFTKNLGLEELGIELDPRGRIPVNTRFQTKIPNIYAIGDVVAGPMLAHKAEDEGIICVEGMAGGAVHIDYNCVPSVIYTHPEVAWVGKSEEQLKEEGIEYKVGKFPFAANSRAKTNADTDGMVKILGQKSTDRVLGAHILGPGAGEMVNEAALALEYGASCEDIARVCHAHPTLSEAFREANLAASFGKSINF | – | binds
I445M-hLADH (enzyme, human, UniProt P09622 36-509, looked up, Dihydrolipoamide dehydrogenase, human, pathogenic variant I445M; Clinically reported disease-causing variant) ADQPIDADVTVIGSGPGGYVAAIKAAQLGFKTVCIEKNETLGGTCLNVGCIPSKALLNNSHYYHMAHGKDFASRGIEMSEVRLNLDKMMEQKSTAVKALTGGIAHLFKQNKVVHVNGYGKITGKNQVTATKADGGTQVIDTKNILIATGSEVTPFPGITIDEDTIVSSTGALSLKKVPEKMVVIGAGVIGVELGSVWQRLGADVTAVEFLGHVGGVGIDMEISKNFQRILQKQGFKFKLNTKVTGATKKSDGKIDVSIEAASGGKAEVITCDVLLVCIGRRPFTKNLGLEELGIELDPRGRIPVNTRFQTKIPNIYAIGDVVAGPMLAHKAEDEGIICVEGMAGGAVHIDYNCVPSVIYTHPEVAWVGKSEEQLKEEGIEYKVGKFPFAANSRAKTNADTDGMVKILGQKSTDRVLGAHILGPGAGEMVNEAALALEYGASCEDMARVCHAHPTLSEAFREANLAASFGKSINF | – | binds
K37E-hLADH (enzyme, human, UniProt P09622 36-509, looked up, Dihydrolipoamide dehydrogenase, human, pathogenic variant K37E; Clinically reported disease-causing variant) ADQPIDADVTVIGSGPGGYVAAIKAAQLGFKTVCIEENETLGGTCLNVGCIPSKALLNNSHYYHMAHGKDFASRGIEMSEVRLNLDKMMEQKSTAVKALTGGIAHLFKQNKVVHVNGYGKITGKNQVTATKADGGTQVIDTKNILIATGSEVTPFPGITIDEDTIVSSTGALSLKKVPEKMVVIGAGVIGVELGSVWQRLGADVTAVEFLGHVGGVGIDMEISKNFQRILQKQGFKFKLNTKVTGATKKSDGKIDVSIEAASGGKAEVITCDVLLVCIGRRPFTKNLGLEELGIELDPRGRIPVNTRFQTKIPNIYAIGDVVAGPMLAHKAEDEGIICVEGMAGGAVHIDYNCVPSVIYTHPEVAWVGKSEEQLKEEGIEYKVGKFPFAANSRAKTNADTDGMVKILGQKSTDRVLGAHILGPGAGEMVNEAALALEYGASCEDIARVCHAHPTLSEAFREANLAASFGKSINF | – | binds
R447G-hLADH (enzyme, human, UniProt P09622 36-509, looked up, Dihydrolipoamide dehydrogenase, human, pathogenic variant R447G; Clinically reported disease-causing variant) ADQPIDADVTVIGSGPGGYVAAIKAAQLGFKTVCIEKNETLGGTCLNVGCIPSKALLNNSHYYHMAHGKDFASRGIEMSEVRLNLDKMMEQKSTAVKALTGGIAHLFKQNKVVHVNGYGKITGKNQVTATKADGGTQVIDTKNILIATGSEVTPFPGITIDEDTIVSSTGALSLKKVPEKMVVIGAGVIGVELGSVWQRLGADVTAVEFLGHVGGVGIDMEISKNFQRILQKQGFKFKLNTKVTGATKKSDGKIDVSIEAASGGKAEVITCDVLLVCIGRRPFTKNLGLEELGIELDPRGRIPVNTRFQTKIPNIYAIGDVVAGPMLAHKAEDEGIICVEGMAGGAVHIDYNCVPSVIYTHPEVAWVGKSEEQLKEEGIEYKVGKFPFAANSRAKTNADTDGMVKILGQKSTDRVLGAHILGPGAGEMVNEAALALEYGASCEDIAGVCHAHPTLSEAFREANLAASFGKSINF | – | binds
G426E-hLADH (enzyme, human, UniProt P09622 36-509, looked up, Dihydrolipoamide dehydrogenase, human, pathogenic variant G426E; Clinically reported disease-causing variant) ADQPIDADVTVIGSGPGGYVAAIKAAQLGFKTVCIEKNETLGGTCLNVGCIPSKALLNNSHYYHMAHGKDFASRGIEMSEVRLNLDKMMEQKSTAVKALTGGIAHLFKQNKVVHVNGYGKITGKNQVTATKADGGTQVIDTKNILIATGSEVTPFPGITIDEDTIVSSTGALSLKKVPEKMVVIGAGVIGVELGSVWQRLGADVTAVEFLGHVGGVGIDMEISKNFQRILQKQGFKFKLNTKVTGATKKSDGKIDVSIEAASGGKAEVITCDVLLVCIGRRPFTKNLGLEELGIELDPRGRIPVNTRFQTKIPNIYAIGDVVAGPMLAHKAEDEGIICVEGMAGGAVHIDYNCVPSVIYTHPEVAWVGKSEEQLKEEGIEYKVGKFPFAANSRAKTNADTDGMVKILGQKSTDRVLGAHILGPGAEEMVNEAALALEYGASCEDIARVCHAHPTLSEAFREANLAASFGKSINF | – | binds
I358T-hLADH (enzyme, human, UniProt P09622 36-509, looked up, Dihydrolipoamide dehydrogenase, human, pathogenic variant I358T; Clinically reported disease-causing variant; mutation verified by MS) ADQPIDADVTVIGSGPGGYVAAIKAAQLGFKTVCIEKNETLGGTCLNVGCIPSKALLNNSHYYHMAHGKDFASRGIEMSEVRLNLDKMMEQKSTAVKALTGGIAHLFKQNKVVHVNGYGKITGKNQVTATKADGGTQVIDTKNILIATGSEVTPFPGITIDEDTIVSSTGALSLKKVPEKMVVIGAGVIGVELGSVWQRLGADVTAVEFLGHVGGVGIDMEISKNFQRILQKQGFKFKLNTKVTGATKKSDGKIDVSIEAASGGKAEVITCDVLLVCIGRRPFTKNLGLEELGIELDPRGRIPVNTRFQTKIPNIYAIGDVVAGPMLAHKAEDEGIICVEGMAGGAVHIDYNCVPSVTYTHPEVAWVGKSEEQLKEEGIEYKVGKFPFAANSRAKTNADTDGMVKILGQKSTDRVLGAHILGPGAGEMVNEAALALEYGASCEDIARVCHAHPTLSEAFREANLAASFGKSINF | binds | –
